These results are taken from patent US11306156.

The target of experiment [1] is tissue factor (TF) antigen (UniProt P13726). In words: SPR; log ratio against wild-type D3H44 Fab.
The target is the same in experiment [2]. Description: SPR; log ratio against wild-type D3H44 Fab; estimated value.
Experiment [3] has the same target. In words: SPR (ProteOn XPR36): Fab captured via His tag on anti-penta-His, TF as analyte, 1:1 fit.
Experiment [4] has the same target. Description: SPR (ProteOn XPR36): Fab captured via His tag on anti-penta-His, TF as analyte, 1:1 fit; estimated value, taken from the same Fab with another L chain tag.
For experiment [5] the target is unchanged. In words: SPR (ProteOn XPR36), His-tagged Fab captured on anti-penta His, TF as analyte, 1:1 fit.
Experiment [6] has the same target. Description: SPR (ProteOn XPR36), His-tagged Fab captured on anti-penta His, TF as analyte; against wild-type D3H44 Fab.
For experiment [7] the target is unchanged. Description: SPR, Fab captured on anti-penta-His, TF as analyte, 1:1 fit. (SPR reads the build-up and loss of mass on a sensor chip optically.)
Experiment [8] shares this target. Description: vs wild-type D3H44 Fab (KD 0.157 nM); SPR, Fab captured on anti-penta-His, TF as analyte.
Experiment [9] shares this target. Description: SPR (ProteOn XPR36), Fab captured by His tag on anti-penta-His surface, TF injected as analyte, 1:1 fit.
For experiment [10] the target is unchanged. In words: SPR (ProteOn XPR36), Fab captured by His tag on anti-penta-His surface, TF injected as analyte; against wild-type D3H44 Fab.
The target is the same in experiment [11]. In words: SPR, Fab captured on anti-penta-His surface, TF as analyte, 1:1 fit; Fab batch C.
The target is the same in experiment [12]. In words: SPR, Fab captured on anti-penta-His surface, TF as analyte, 1:1 fit; Fab batch C; against wild-type D3H44 Fab.

Sequence of tissue factor (TF) antigen (P13726 33-251 limits assumed): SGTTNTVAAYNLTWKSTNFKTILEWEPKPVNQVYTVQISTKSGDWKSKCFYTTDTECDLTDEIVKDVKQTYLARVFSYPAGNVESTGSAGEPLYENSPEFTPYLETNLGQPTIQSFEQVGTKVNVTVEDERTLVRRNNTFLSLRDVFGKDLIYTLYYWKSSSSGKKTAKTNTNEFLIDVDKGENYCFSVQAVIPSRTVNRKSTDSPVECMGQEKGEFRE

Take “D3H44 Fab heterodimer, H L143E_K145T_Q179E / L Q124K_T178R (H1L1 of LCCA sets 9645 and 9648)”: the Change in KD with respect to wild type (-(log(KD design) - log(KD wt))) in experiment [1] and in experiment [2] was 0.05 each time. Also, the Kd in [3] and in experiment [4] was 0.14 nM throughout.
“D3H44 Fab heterodimer, H1 D146G_H172R_Q179K / L1 Q38E_Q124E_Q160E_T180E (H1L1 Fab of LCCA Set # 9064)”: the Kd (commonly the constant that tells how readily two partners part at equilibrium) in experiment [5] was determined as 0.17 nM. The Change in median values of KD of h1|1 Fab heterodimer compared to wild type (-(log(KD design)-log(KD wt))) in experiment [6] was -0.05.
Regarding “H1L1 Fab heterodimer of LCCA sets 9735 and 9737 (D3H44 Fab, H1 L143R, L1 Q124E_V133E)”, the Kd in experiment [7] was found to be 0.2 nM. Besides, in [8], the change in median KD compared to wild type, -(log(KD design)-log(KD wt)) was -0.09.
In the case of “D3H44 Fab heterodimer, H1 L124E_L143D_K145M / L1 Q124K_V133G_Q160K_S176R (H1L1 Fab of LCCA Set # 9170, 9171 and 9172)”, in [5], the Kd turned out to be 0.27 nM. This substance yielded a Change in median values of KD of h1|1 Fab heterodimer compared to wild type (-(log(KD design)-log(KD wt))) in experiment [6] of -0.24.
In turn, “D3H44 H1L1 Fab heterodimer of LCCA Set # 9103 (H1 L124A_S186K, L1 Q124E_V133W_T180E)” registered a Kd in experiment [9] of 0.15 nM. This substance also had a change in median KD compared to wild type, -(log(KD design)-log(KD wt)) in [10] of 0.02 log.
In experiment [9], “D3H44 H1L1 Fab heterodimer of LCCA Set # 9122 (H1 L124E_H172T, L1 V133G_S174R_S176R)” returned a Kd of 0.13 nM. Further, the change in median KD compared to wild type, -(log(KD design)-log(KD wt)) in [10] is 0.1 log.
With “H1L1 Fab heterodimer of LCCA sets 9869, 9871, 9874, 9876 and 9879 (D3H44 Fab, H1 S186R, L1 Q124E_Q160E_T180E)”, in experiment [7], the Kd was 0.05 nM. Moreover, the change in median KD compared to wild type, -(log(KD design)-log(KD wt)) in [8] came out at 0.51.
On to “D3H44 Fab heterodimer, H L143D_K145T_Q179E / L T178R (H1L1 of LCCA sets 9579 and 9575)”, for which the Change in KD with respect to wild type (-(log(KD design) - log(KD wt))) in [1] and in [2] was -0.25 in each case. The Kd in experiment [3] and in experiment [4] was 0.28 nM in each case.
Turning to “H1L1 Fab heterodimer of LCCA sets 9757 and 9758 (D3H44 Fab, H1 Q179K, L1 Q124E_Q160E_T178E)”, the Kd in [7] was found to be 0.29 nM. In addition, the change in median KD compared to wild type, -(log(KD design)-log(KD wt)) in experiment [8] was -0.27.
“D3H44 H1L1 Fab heterodimer of LCCA Set # 9116 (H1 L124E_A139W, L1 F116A_V133G_L135V_S176R)” had a Kd in experiment [9] of 0.16 nM. Further, the change in median KD compared to wild type, -(log(KD design)-log(KD wt)) in experiment [10] is -0.02 log.
On to “H1L1 Fab heterodimer of LCCA sets 9667, 9671, 9675, 9679 and 9682 (D3H44 Fab, H1 L143E_K145T_Q179E, L1 Q124R_T178R)”, for which, in [7], the Kd was determined as 0.27 nM. In experiment [8], the change in median KD compared to wild type, -(log(KD design)-log(KD wt)) was -0.23.
As to “D3H44 H1L1 Fab heterodimer of LCCA Sets # 9092, 9091 and 9090 (H1 L124A_L143F_Q179K, L1 Q124E_V133W_S176T_T178E_T180E)”, in experiment [9], the Kd came to 0.16 nM. The change in median KD compared to wild type, -(log(KD design)-log(KD wt)) in experiment [10] is -0.02 log.
As to “D3H44 Fab heterodimer, H L143E_K145T_Q179D / L Q124R_T178R (H1L1 of LCCA sets 9635 and 9632)”, the Change in KD with respect to wild type (-(log(KD design) - log(KD wt))) in experiment [1] and in experiment [2] was 0.04 in each case. The Kd in [3] and in [4] was 0.14 nM throughout.
In turn, “D3H44 H1L1 Fab heterodimer of LCCA Sets # 6054, 9338 and 9339 (H1 L124R, L1 V133G_S176D_T178D)” had a Kd in [9] of 0.24 nM. Further, the change in median KD compared to wild type, -(log(KD design)-log(KD wt)) in experiment [10] is -0.18 log.
With “D3H44 Fab heterodimer, H L143E_K145T_Q179D / L Q124R_Q160K_T178R (H1L1 of LCCA set 9623)”, the Change in KD with respect to wild type (-(log(KD design) - log(KD wt))) in experiment [2] is 0.39. Also, the Kd in experiment [4] is 0.06 nM.
In the case of “D3H44 Fab heterodimer, H L143E_K145T_Q179E / L Q124R_T178R (H1L1 of LCCA sets 9679 and 9663)”, the Change in KD with respect to wild type (-(log(KD design) - log(KD wt))) in [1] and in experiment [2] was -0.23 in each case. The Kd in experiment [3] and in experiment [4] was 0.27 nM each time.
“D3H44 Fab heterodimer, H1 D146G_Q179K / L1 Q38E_Q124E_Q160E_T180E (H1L1 Fab of LCCA Set # 9065)”: in experiment [5], the Kd came to 0.18 nM. Besides, in experiment [6], the Change in median values of KD of h1|1 Fab heterodimer compared to wild type (-(log(KD design)-log(KD wt))) is -0.05.
In the case of “D3H44 Fab heterodimer, H L143E_K145T_Q179E / L T178R (H1L1 of LCCA sets 9683 and 9684)”, the Change in KD with respect to wild type (-(log(KD design) - log(KD wt))) in [1] and in experiment [2] was -0.28 throughout. Further, the Kd in experiment [3] and in experiment [4] was 0.3 nM each time.
“D3H44 Fab heterodimer, H L143E_K145T_Q179D / L T178R (H1L1 of LCCA set 9641)”: in experiment [2], the Change in KD with respect to wild type (-(log(KD design) - log(KD wt))) was 0.17. The Kd in experiment [4] was 0.11 nM.
Take “D3H44 H1L1 Fab heterodimer of LCCA Sets # 9486, 9487, 9488 and 9489 (H1 L124R_S186K, L1 V133G_S176D_T178E_T180E)”: the Kd in experiment [9] worked out at 0.23 nM. In addition, in experiment [10], the change in median KD compared to wild type, -(log(KD design)-log(KD wt)) is -0.17 log.
In the same order, the values of “D3H44 H1L1 Fab heterodimer of LCCA Set # 9575 (H1 L143D_K145T_Q179E, L1 T178R)” are 0.28 nM and -0.25 log.
Turning to “D3H44 H1L1 Fab heterodimer of LCCA Sets # 9743 and 9744 (H1 L143R, L1 Q124E_V133E_S176L)”, in [9], the Kd stood at 0.28 nM. In experiment [10], this substance returned a change in median KD compared to wild type, -(log(KD design)-log(KD wt)) of -0.25 log.
The substance “H1L1 Fab heterodimer of LCCA set 10552 (D3H44 Fab, H1 L45P_L143E_K145T_H172R, L1 P44F_Q124R_Q160K_T178R)” had a Kd in experiment [7] of 0.29 nM. In experiment [8], this substance showed a change in median KD compared to wild type, -(log(KD design)-log(KD wt)) of -0.27.
In experiment [7], “H1L1 Fab heterodimer of LCCA sets 9546 and 9547 (D3H44 Fab, H1 L124R_S186R, L1 V133G_S176D_T180E)” came in with a Kd of 0.24 nM. The substance also had a change in median KD compared to wild type, -(log(KD design)-log(KD wt)) in experiment [8] of -0.18.
In the same order, the values of “H1L1 Fab heterodimer of LCCA sets 9755 and 9756 (D3H44 Fab, H1 Q179K, L1 Q124E_L135W_Q160E_T180E)” are 0.28 nM and -0.26.
Turning to “D3H44 Fab heterodimer, H L143E_K145T_Q179E / L Q124R_T178K (H1L1 of LCCA set 9657)”, the Change in KD with respect to wild type (-(log(KD design) - log(KD wt))) in experiment [2] is -0.08. In addition, the Kd in experiment [4] was 0.19 nM.
Regarding “H1L1 Fab heterodimer of LCCA set 9746 (D3H44 Fab, H1 L45P_K145T_Q179E, L1 P44F_S131K)”, the Kd in experiment [7] amounted to 0.35 nM. The same substance displayed a change in median KD compared to wild type, -(log(KD design)-log(KD wt)) in experiment [8] of -0.35.
In the case of “D3H44 H1L1 Fab heterodimer of LCCA Set # 9644 (H1 L143E_K145T_Q179D_S188L; L1 Q124R_Q160K_T178R)”, the Kd in experiment [11] was determined as 0.13 nM. Moreover, the change in median KD compared to wild type, -(log(KD design)-log(KD wt)) in experiment [12] stood at 0.09.
